Measured values reported in US20250296984A1, “THERAPEUTIC AND DIAGNOSTIC AGENTS AND USES THEREOF” (priority 2022, published 2025).

Key:
[1] = system: control CHO cells (US28 negative); assay: FACS binding to US28 negative control CHO cells; parameters: species or system Chinese hamster; conditions: Table 7A; (1:5) (200 μg/ml); secondary antibody background removed
Procedure: Flowcytometry was used to analyze cell surface binding by the US28 antibodies. Upon cell harvest, adherent non-infected and US28 overexpressing or HCMV infected cells were washed three times with cell staining buffer (phosphate-buffered saline (PBS (Amresco, Cleveland, 44139, USA) added 0.5% BSA and 0.05% Sodium Azide (NaN3)). The cells were trypisinized and then resuspended in DMEM with 10% FBS to inhibit the action of trypsin. The cells were then pelleted at 400×g for 10 minutes and washed three times in cell staining buffer. Cell viability and cell concentration were measured by tryphan blue viability assay and a cell counter (Countess, Invitrogen, Carlsbad, CA 92008, USA). The cell suspension was adjusted to 1×10^6 cells/mL with ice-cold cell staining buffer. The cells were blocked in 1 ml 10% FBS or 1% BSA in PBS per 1×10^6 cells, vortexed briefly, and incubated for 10-30 minutes to eliminate non-specific staining. The cells were then stained with the respective antibodies and appropriate negative controls.
In both cases (ECD1 and ECD3), the antibodies were added to the cells, vortexed and incubated on ice for 15 to 30 minutes up to overnight and washed twice with cell staining buffer to remove any unbound antibodies. In addition, the CMV Immediate Early Antigen (IE) Alexa488 Ab, MAB810X, 1:50 was included to verify HCMV infected cells in one of the experiments. Because it binds to an intracellular, HCMV encoded protein, it was added after permeabilizing the cells in 70% ethanol for 30 min on ice.
1:500-1:5000 in cell staining buffer of the appropriate fluorescent-conjugated appropriate secondary antibodies were added and incubated on ice for 15-20 min in the dark. The cells were washed three times to remove any unbound antibodies. The cells were then fixed with 0.5% paraformaldehyde (PFA) for 30 min on ice and resuspended in 200-500 μL cell staining buffer for final flow cytometric analysis using an Accuri C6 flow cytometry system (BD Biosciences, San Jose, CA 95131, USA). Data analyses were performed using FlowJo software v8.8 (Treestar Inc. Ashland, OR 97520, USA).
Background levels were determined using the respective secondary antibodies (anti-mFc-FITC for the subclones, or anti-myc-PE for the VUN100 molecules) with CHO cells and CHO-US28 cells. Given that US28 is expressed on the cell surface, the cells were non-permeabilised for these experiments.

[2] = molecular target: T1, Peptide-2 […] (SEQ ID NO: 7), US28 ECD3 4D variant (Human cytomegalovirus, UniProt P69332); assay: ELISA, binding to Bio-Peptide-2; parameters: species or system HCMV; conditions: 4D variant peptide
T1 construct: made in house; host or cells: chemical synthesis
Procedure: Microtiter plate wells were coated with 100 μl of the solution containing: (i) Bio-Peptide-N; or (ii) Bio-Peptide-1 and Bio-Peptide-2; at a concentration of between 1-10 μg/ml in coating buffer, consisting of Na2CO3, 1.5 g and NaHCO3, 2.93 g in 1 L of distilled water in pH 9.6, and then incubated for 1-2 hours at room temperature. The plate was washed 3 times in wash buffer consisting of PBS containing 0.05% v/v Tween-20 and blotted with paper towels thereafter. 150 μl of blocking solution containing Phosphate buffered saline (PBS) containing 1% w/v BSA, was added to each well and the plate was incubated for 2 hours at 37° C. The wells were washed 4 times in wash buffer and blotted on paper towels after the last wash. 100 μl of antibody dilution was added to each well and the plate was incubated for 1 hour at 37° C. and thereafter washed 3 times in wash buffer. 100 μl enzyme-conjugated secondary antibody (appropriately diluted in wash buffer) was added to each well and the plate was incubated for 1 hour at 37° C. The wells were then again washed 3 times in wash buffer and blotted with paper towels after the last wash. […] The absorbance values were read immediately at the appropriate wavelength and the data analyzed by Cmax Plus, Molecular Devices, San Jose, CA 95134, USA, […]

Molecule	Percentage of binding to CHO cells [1] [%]	Absorbance values, Peptide 2 [2]
13-1C10-1C10: mouse hybridoma subclone antibody against US28 ECD3 Peptide-1 and -2; sequenced (antibody) heavy: EVKLVESGGVLVKPGGSLKFSCAASGFTFSSHALSWVRQTPEKRLEWVASISSRGRTYYPDSVKGRFTVSRDNARNILYLQVSSLRSEDTAMYYCTRGGTHYSYGNGFDFWGQGTTLTVSSAKTTPPSVYPLAPGSAAQTNSMVTLGCLVKGYFPEPVTVTWNSGSLSSGVHTFPAVLQSDLYTLSSSVTVPSSTWPSETVTCNVAHPASSTKVDKKIVPRDCGCKPCICTVPEVSSVFIFPPKPKDVLTITLTPKVTCVVVDISKDDPEVQFSWFVDDVEVHTAQTQPREEQFNSTFRSVSELPIMHQDWLNGKEFKCRVNSAAFPAPIEKTISKTKGRPKAPQVYTIPPPKEQMAKDKVSLTCMITDFFPEDITVEWQWNGQPAENYKNTQPIMDTDGSYFIYSKLNVQKSNWEAGNTFTCSVLHEGLHNHHTEKSLSHSPGK light: QIVLTQSPAIMSASPGEKVTMTCSVSSSVSYMHWYQQKSGTSPKRWIYDTSKLASGVPARFSGSGSGTSYSLTISTMEAEDAATYYCQQWSNNPPITFGAGTKLELKRADAAPTVSIFPPSSEQLTSGGASVVCFLNNFYPKDINVKWKIDGSERQNGVLNSWTDQDSKDSTYSMSSTLTLTKDEYERHNSYTCEATHKTSTSPIVKSFNRNEC	0.62	3.029
14-1H3-1A10: mouse hybridoma subclone antibody against US28 ECD3 Peptide-1 and -2; sequenced (antibody) heavy: EVKLVESGGVLVKPGGSLKFSCAASGFTLSSHALSWVRQTPEKRLEWVASISSRGRTYYPDSVKGRFTVSRDNARNILYLQVSSLRSEDTAMYYCTRGGTHYSYGNGFDFWGQGTTLTVSSAKTTPPSVYPLAPGSAAQTNSMVTLGCLVKGYFPEPVTVTWNSGSLSSGVHTFPAVLQSDLYTLSSSVTVPSSTWPSETVTCNVAHPASSTKVDKKIVPRDCGCKPCICTVPEVSSVFIFPPKPKDVLTITLTPKVTCVVVDISKDDPEVQFSWFVDDVEVHTAQTQPREEQFNSTFRSVSELPIMHQDWLNGKEFKCRVNSAAFPAPIEKTISKTKGRPKAPQVYTIPPPKEQMAKDKVSLTCMITDFFPEDITVEWQWNGQPAENYKNTQPIMDTDGSYFIYSKLNVQKSNWEAGNTFTCSVLHEGLHNHHTEKSLSHSPGK light: QIVLTQSPAIMSASPGEKVTMTCSVSSSVSYMHWYQQKSGTSPKRWIYDTSKLASGVPARFSGSGSGTSYSLTISTMEAEDAATYYCQQWSNNPPITFGAGTKLELKRADAAPTVSIFPPSSEQLTSGGASVVCFLNNFYPKDINVKWKIDGSERQNGVLNSWTDQDSKDSTYSMSSTLTLTKDEYERHNSYTCEATHKTSTSPIVKSFNRNEC	0.58	2.842
